{"source": "patent US20130336885A1", "about": "(Genentech, published 2013)", "binders": {"B1": {"name": "monoclonal antibody 3G12 (antibody, V domains shown)", "VH": "QVQLQQPGAEMVKPGASVKLSCKASVDTFNSYWMHWVKQRPGQGLEWIGEINPSNGRTNYIEKFKNRATVTVDKSSSTAFMQLSSLTSEDSAVYYCATGWYFDVWGAGTTVTVSS", "VL": "DVVMTQTPLSLPVSLGDQASISCRSSQSLVHSNGNTYLQWYLQKPGQSPKLLIYKVSNRFSGVPDRFSGSGSGTDFTLKISRVEAEDLGIYFCSQSTHFPYTFGGGTKLEIKR", "notes": "The variable domains are the same in both forms; also called m3G12; mu3G12"}}, "key": {"[1]": {"target": "T1, gD epitope-tagged LgR5 22-123 (amino acids 22-123 of SEQ ID NO: 67) with a C-terminal GPI anchor on … (human, UniProt O75473 22-123, C-terminal GPI anchor)", "T1 sequence": "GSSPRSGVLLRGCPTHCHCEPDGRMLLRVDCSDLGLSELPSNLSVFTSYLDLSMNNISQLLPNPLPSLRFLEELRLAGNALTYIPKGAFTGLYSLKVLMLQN", "assay": "FACS on transiently transfected 293 cells"}, "[2]": {"target": "T2, gD epitope-tagged LgR5 22-323 (amino acids 22-323 of SEQ ID NO: 67) with a C-terminal GPI anchor on … (human, UniProt O75473 22-323, C-terminal GPI anchor)", "T2 sequence": "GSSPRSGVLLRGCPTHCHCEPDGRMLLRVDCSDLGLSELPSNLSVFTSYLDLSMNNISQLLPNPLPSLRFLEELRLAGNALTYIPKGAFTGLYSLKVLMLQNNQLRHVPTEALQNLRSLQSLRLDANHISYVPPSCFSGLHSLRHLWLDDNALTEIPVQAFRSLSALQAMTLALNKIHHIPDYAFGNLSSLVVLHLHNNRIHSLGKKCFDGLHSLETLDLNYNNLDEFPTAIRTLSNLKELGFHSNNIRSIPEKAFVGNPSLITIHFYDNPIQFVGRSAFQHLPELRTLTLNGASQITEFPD", "assay": "FACS on transiently transfected 293 cells"}, "[3]": {"target": "T3, gD epitope-tagged LgR5 424-907 (amino acids 424-907 of SEQ ID NO: 67) on transiently transfected 293 cells (human, UniProt O75473 424-907)", "T3 sequence": "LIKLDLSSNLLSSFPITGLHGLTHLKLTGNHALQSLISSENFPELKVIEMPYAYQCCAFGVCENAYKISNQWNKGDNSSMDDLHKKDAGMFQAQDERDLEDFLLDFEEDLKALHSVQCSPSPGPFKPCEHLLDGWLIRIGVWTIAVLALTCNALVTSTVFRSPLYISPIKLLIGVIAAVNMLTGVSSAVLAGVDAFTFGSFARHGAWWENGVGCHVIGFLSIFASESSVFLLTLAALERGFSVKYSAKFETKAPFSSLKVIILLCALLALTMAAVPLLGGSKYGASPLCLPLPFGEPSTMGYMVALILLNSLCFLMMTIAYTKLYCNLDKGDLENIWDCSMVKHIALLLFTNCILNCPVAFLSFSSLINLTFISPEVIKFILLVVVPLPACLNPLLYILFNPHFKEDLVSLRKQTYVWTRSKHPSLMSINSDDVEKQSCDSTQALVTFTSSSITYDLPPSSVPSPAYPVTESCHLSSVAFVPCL", "assay": "FACS on transiently transfected 293 cells"}, "[4]": {"target": "T4, human LgR5 ECD (amino acids 22-557 fused to His-Fc expressed in a baculovirus system, or amino acids 22-558 … (human, UniProt O75473 22-557))", "T4 construct": "not shown: C-terminal His-tagged Fc", "T4 sequence": "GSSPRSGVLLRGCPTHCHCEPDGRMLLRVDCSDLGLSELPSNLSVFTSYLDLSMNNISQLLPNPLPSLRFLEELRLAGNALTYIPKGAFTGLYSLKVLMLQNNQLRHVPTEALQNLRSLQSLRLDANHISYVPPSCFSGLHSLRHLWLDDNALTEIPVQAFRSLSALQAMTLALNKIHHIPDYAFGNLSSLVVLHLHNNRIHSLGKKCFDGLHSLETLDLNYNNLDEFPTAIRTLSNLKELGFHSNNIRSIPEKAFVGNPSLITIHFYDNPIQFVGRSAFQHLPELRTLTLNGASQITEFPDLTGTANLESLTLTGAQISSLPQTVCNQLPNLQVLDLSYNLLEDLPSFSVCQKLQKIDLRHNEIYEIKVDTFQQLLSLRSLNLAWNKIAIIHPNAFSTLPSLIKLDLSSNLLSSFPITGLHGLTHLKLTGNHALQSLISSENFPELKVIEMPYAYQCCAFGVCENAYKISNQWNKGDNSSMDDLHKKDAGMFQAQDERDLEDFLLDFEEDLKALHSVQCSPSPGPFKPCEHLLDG", "assay": "SPR (BIAcore-3000), antibody captured by anti-human Fc, LgR5 ECD-Fc injected"}, "[5]": {"target": "T5, gD epitope-tagged mouse LgR5 expressed on stably transfected 293 cells (mouse, UniProt Q9Z1P4 22-907)", "T5 construct": "also called gD-tagged mouse LgR5", "T5 sequence": "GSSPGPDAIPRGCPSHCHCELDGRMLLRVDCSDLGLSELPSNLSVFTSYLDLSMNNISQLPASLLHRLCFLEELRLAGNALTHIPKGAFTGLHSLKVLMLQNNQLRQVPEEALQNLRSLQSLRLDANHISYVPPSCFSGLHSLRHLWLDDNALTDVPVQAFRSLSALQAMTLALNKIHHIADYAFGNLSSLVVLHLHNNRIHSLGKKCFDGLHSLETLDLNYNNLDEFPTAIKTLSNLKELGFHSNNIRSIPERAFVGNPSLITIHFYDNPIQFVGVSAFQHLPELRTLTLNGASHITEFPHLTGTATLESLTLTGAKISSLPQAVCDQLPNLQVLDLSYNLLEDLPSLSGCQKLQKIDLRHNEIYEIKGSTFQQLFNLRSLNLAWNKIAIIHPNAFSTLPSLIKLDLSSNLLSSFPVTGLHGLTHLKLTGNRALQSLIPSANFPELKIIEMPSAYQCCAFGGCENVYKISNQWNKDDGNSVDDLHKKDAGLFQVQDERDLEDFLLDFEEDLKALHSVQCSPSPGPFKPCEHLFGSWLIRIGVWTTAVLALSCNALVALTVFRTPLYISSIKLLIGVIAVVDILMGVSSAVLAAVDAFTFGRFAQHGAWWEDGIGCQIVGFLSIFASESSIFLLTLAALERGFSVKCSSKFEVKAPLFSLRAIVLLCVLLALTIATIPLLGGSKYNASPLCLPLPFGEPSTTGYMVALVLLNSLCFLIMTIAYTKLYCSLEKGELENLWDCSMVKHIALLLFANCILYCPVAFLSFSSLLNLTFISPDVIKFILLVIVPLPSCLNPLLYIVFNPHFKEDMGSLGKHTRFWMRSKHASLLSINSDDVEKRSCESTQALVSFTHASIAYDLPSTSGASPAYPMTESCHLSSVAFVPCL", "assay": "FACS on 293 cells stably transfected with gD epitope-tagged LgR5, 10 ug/ml antibody, R-Phycoerythrin goat anti-human detection", "description": "Monoclonal antibodies were tested to determine if they cross-react with LgR5 from species other than human. […] Residues that are identical among all four species are indicated by asterisks (*). […] YW353 antibody binds human and cynomolgus monkey LgR5, but not rat or mouse LgR5. Ch8E11 and hu8E11.v2 antibodies bind all four species of LgR5, although binding to rat LgR5 is not as strong as binding to human, cynomolgus monkey, or mouse LgR5. 2H6 antibody binds to human and mouse LgR5, and was not tested for binding to cynomolgus monkey or rat LgR5."}}, "data": [{"binder": "B1", "values": [{"measurement": "binding result", "setting": "[1]", "result": "no binding (tested: 10 µg/ml)"}, {"measurement": "binding result", "setting": "[2]", "result": "no binding (tested: 10 µg/ml)"}, {"measurement": "binding result", "setting": "[3]", "result": "no binding (tested: 10 µg/ml)"}, {"measurement": "Kd", "setting": "[4]", "result": 72, "unit": "nM"}, {"measurement": "binding result", "setting": "[5]", "result": "binds"}]}]}
